# Results reported in paper PMC11165477.
# Columns and labels:
# [1] = biological target: Ma1α-neoGreen, expressed in Xenopus laevis oocytes (apple (Malus domestica)); test: single-molecule photobleaching step counting (TIRF); competition: Ma1α-neoGreen in X. laevis oocytes co-injected with 25% or 50% of the total cRNA as untagged Ma1β
# [2] = biological target: Ma1α-neoGreen, expressed in Xenopus laevis oocytes (apple (Malus domestica)); test: single-molecule photobleaching step counting (TIRF); Ma1α-neoGreen alone in X. laevis oocytes, 16-24 h after cRNA injection, vitelline membrane removed, ND96 solution
Substance,percent Ma1α-neoGreen dimer population (two bleaching steps) with 25% of the total cRNA as untagged Ma1β [1] [%],percent Ma1α-neoGreen dimer population (two bleaching steps) with 50% of the total cRNA as untagged Ma1β [1] [%],percent of fluorescent spots with two discrete bleaching steps [2] [%],stoichiometry N [2]
"Ma1β, untagged, expressed in Xenopus laevis oocytes (natural protein)",38,30,,
"Ma1α-neoGreen, expressed in Xenopus laevis oocytes (natural protein)",,,72,2
